# Where two headings read alike, the source gives them in different places.
# Experiments:
# Assay in all cases: SPR
# [1] = target: human CD1d loaded with α-GalCer, wild type (human) (UniProt P15813)
# [2] = target: mouse CD1d loaded with α-GalCer (mouse) (UniProt P11609)
# [3] = target: human CD1d Val147 to Ala mutant loaded with α-GalCer (human)
# [4] = target: human CD1d Arg79 to Ala mutant loaded with α-GalCer (human)
# [5] = target: human CD1d Lys86 to Ala mutant loaded with α-GalCer (human)
# [6] = target: human CD1d Gln150 to Ala mutant loaded with α-GalCer (human)
# [7] = target: human CD1d loaded with α-GalCer, wild type (human) (UniProt P15813); remark: listed apart in the source
# [8] = target: human CD1d Met87 to Ala mutant loaded with α-GalCer (human)
# Sequence of UniProt P15813 (P15813 20-301): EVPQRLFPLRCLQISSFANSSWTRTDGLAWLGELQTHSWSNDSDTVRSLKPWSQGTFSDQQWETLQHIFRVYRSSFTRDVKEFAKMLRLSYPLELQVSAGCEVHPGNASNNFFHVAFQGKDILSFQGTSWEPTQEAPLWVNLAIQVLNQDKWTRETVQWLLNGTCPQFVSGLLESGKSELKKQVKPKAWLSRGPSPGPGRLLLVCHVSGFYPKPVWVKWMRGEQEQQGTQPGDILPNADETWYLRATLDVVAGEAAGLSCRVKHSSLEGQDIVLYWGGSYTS
# Sequence of UniProt P11609 (P11609 22-336): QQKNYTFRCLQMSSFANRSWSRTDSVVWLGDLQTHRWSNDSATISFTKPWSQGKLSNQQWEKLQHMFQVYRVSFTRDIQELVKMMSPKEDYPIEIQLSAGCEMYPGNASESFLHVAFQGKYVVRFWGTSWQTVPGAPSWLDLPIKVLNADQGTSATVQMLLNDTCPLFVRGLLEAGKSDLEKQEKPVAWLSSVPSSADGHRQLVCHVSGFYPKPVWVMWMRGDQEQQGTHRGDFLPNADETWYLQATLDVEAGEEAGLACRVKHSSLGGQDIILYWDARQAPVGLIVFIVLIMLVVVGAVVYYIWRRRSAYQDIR
Substance,Kd [1] [µM],Kd [2] [µM],further results
human NKT TCR (NKT15) Gly96αAla mutant,1.07,1.19,–
"human NKT TCR (NKT15), wild type",0.46,0.94,Kd [3]: 3.6 µM; Kd [4]: 0.35 µM; Kd [5]: 2.83 µM; Kd [6]: 2.5 µM; Kd [7]: 0.58 µM; Kd [8]: 7.9 µM
human NKT TCR (NKT15) Arg103α to Ala mutant,–,2.56,–
human NKT TCR (NKT15) Tyr103βAla mutant,0.71,0.82,–
human NKT TCR (NKT15) Glu56β to Ala mutant,–,0.72,–
human NKT TCR (NKT15) Pro28αAla mutant,5.44,4.75,–
human NKT TCR (NKT15) Asn53β to Ala mutant,0.73,1.19,–
human NKT TCR (NKT15) Ser30αAla mutant,–,1.16,–

# Source: publication PMC2292230
